# Laboratory results reported in article PMC5449386.
# Legend:
# Test in all cases: controlled Fab-arm exchange read by hydrophobic interaction chromatography; equimolar parental antibodies, 1 mg/mL each, 75 mM 2-MEA, 5 h at 31 °C; 2-MEA removed, overnight at 4 °C for re-oxidation; percent bispecific product from HIC peak areas
# [1] = target: IgG1-CH3(mmG2a)-T370K-K409R parental antibody (7D8-derived) (human | mouse)
# [2] = target: IgG1-CH3(mmG2a)-K409R parental antibody with the R411T mutation (7D8-derived) (human | mouse)
# [3] = target: mmIgG2b-K409R parental antibody (7D8-derived) (human | mouse)
# mmIgG2b-K409R parental antibody (7D8-derived) (human | mouse), sequence (heavy, as listed by the source, chain 1 of 2): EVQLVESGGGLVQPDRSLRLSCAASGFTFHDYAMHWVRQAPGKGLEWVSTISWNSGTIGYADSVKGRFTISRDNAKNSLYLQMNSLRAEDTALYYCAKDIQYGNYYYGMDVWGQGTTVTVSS
# mmIgG2b-K409R parental antibody (7D8-derived) (human | mouse), sequence (light, as listed by the source, chain 2 of 2): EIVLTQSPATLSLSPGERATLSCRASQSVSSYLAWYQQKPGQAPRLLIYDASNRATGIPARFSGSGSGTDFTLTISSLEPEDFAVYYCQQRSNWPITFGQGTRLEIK
# IgG1-CH3(mmG2a)-T370K-K409R parental antibody (7D8-derived) (human | mouse), sequence (heavy, as listed by the source, chain 1 of 2): as the sequence (heavy, as listed by the source, chain 1 of 2) above
# IgG1-CH3(mmG2a)-T370K-K409R parental antibody (7D8-derived) (human | mouse), sequence (light, as listed by the source, chain 2 of 2): as the sequence (light, as listed by the source, chain 2 of 2) above
# IgG1-CH3(mmG2a)-K409R parental antibody with the R411T mutation (7D8-derived) (human | mouse), sequence (heavy, as listed by the source, chain 1 of 2): as the sequence (heavy, as listed by the source, chain 1 of 2) above
# IgG1-CH3(mmG2a)-K409R parental antibody with the R411T mutation (7D8-derived) (human | mouse), sequence (light, as listed by the source, chain 2 of 2): as the sequence (light, as listed by the source, chain 2 of 2) above
cFAE efficiency (percent bispecific product by HIC) [1] [%],cFAE efficiency (percent bispecific product by HIC) [2] [%],cFAE efficiency (percent bispecific product by HIC) [3] [%],Substance
> 90,,,IgG1-CH3(mmG2a)-F405L parental antibody (2F8-derived)
76,,,IgG1-CH3(mmG2a)-F405L parental antibody with the T370K mutation (2F8-derived)
> 90,61,,IgG1-CH3(mmG2a)-F405L-R411T parental antibody (2F8-derived)
,,80,mmIgG2b-F405L parental antibody (2F8-derived)
